Laboratory results from US20190031764A1 (published 2019).
Where a chain is given by its changes, count along the chain named. Names and notes keep the numbering of the source.

B1: S75D variant of PD1B244 (antibody, V domains shown)
VH: QVQLVQSGAEVKKPGSSVKVSCKASGGTFSSYAISWVRQAPGQGLEWMGGIIPIFDTANYAQKFQGRVTITADEDTSTAYMELSSLRSEDTAVYYCARPGLAAAYDTGSLDYWGQGTLVTVSS
VL: EIVLTQSPATLSLSPGERATLSCRASQSVRSYLAWYQQKPGQAPRLLIYDASNRATGIPARFSGSGSGTDFTLTISSLEPEDFAVYYCQQRNYWPLTFGQGTKVEIK
B2: S84D variant of PD1B244 (antibody, V domains shown)
VH: B1 VH with D75S, S84D
VL: B1 VL
B3: S88D variant of PD1B244 (antibody, V domains shown)
VH: B1 VH with D75S, S88D
VL: B1 VL

Target: human PD1 antigen (human, UniProt Q15116 25-167)
Assay: SPR

Chain of human PD1 antigen (Q15116 25-167): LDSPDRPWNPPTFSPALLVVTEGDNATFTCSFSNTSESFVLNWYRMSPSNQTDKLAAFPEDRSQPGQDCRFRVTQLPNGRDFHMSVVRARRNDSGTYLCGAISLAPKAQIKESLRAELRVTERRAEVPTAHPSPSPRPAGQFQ

Binder	Kd [nM]
B1	1.38
B2	1.51
B3	1.36
